Experiment: Dose response of E3 on body weight in arthritic rats (Example 9)
Type: in vivo, rat
Experimental: The ability of E3 to produce reduction in pain in arthritic rats was further investigated by examining the dose response relationship between E3 administration and pain reduction. Rats were treated with adjuvant to induce arthritis as described above. Ten rats not injected with adjuvant were used as non-arthritic controls. Fourteen days after adjuvant injection, animals were qualified into the study based on the criteria stated above, randomized into eight groups of ten rats and tested for the intensity of their vocalization response. They were then dosed on day 14 with saline, or 0.003 mg/kg, 0.01 mg/kg, 0.03 mg/kg, 0.1 mg/kg, 0.3 mg/kg, 1 mg/kg or 5 mg/kg of E3 antibody as described above. Animals were tested for their vocalization response on days 16, 18, 20, and 24. Animals were redosed with saline or the same dose of E3 on day 18 after the vocalization testing. Animals were also weighed each day, starting at day 14. Thus, animals were dosed twice with a given dose of antibody or saline on days 14 and 18, and assessed for pain five times, on days 14, 16, 18, 20 and 24. Data are shown in Tables 20-22 and in FIGS. 20-22.
The effect of treating animals with various doses of anti-NGF antibody E3 on body weight was statistically analyzed by using two-way ANOVA to compare the results obtained pairwise between arthritic animals treated with vehicle with those treated with a given dose of antibody E3. […] At all higher dose of E3, the difference between treated and untreated arthritic animals was significant (p= or <0.0001). […]

[1] = E3 0.1 mg/kg on days 14+18, day 17
[2] = E3 0.1 mg/kg on days 14+18, day 18
[3] = E3 0.1 mg/kg on days 14+18, day 20
[4] = E3 0.1 mg/kg on days 14+18, day 21
[5] = E3 0.1 mg/kg on days 14+18, day 23
[6] = E3 0.1 mg/kg on days 14+18, day 24
[7] = E3 0.3 mg/kg on days 14+18, day 14
[8] = E3 0.3 mg/kg on days 14+18, day 15
[9] = E3 0.3 mg/kg on days 14+18, day 16
[10] = E3 0.3 mg/kg on days 14+18, day 17
[11] = E3 0.3 mg/kg on days 14+18, day 18
[12] = E3 0.3 mg/kg on days 14+18, day 20
[13] = E3 0.3 mg/kg on days 14+18, day 21
[14] = E3 0.3 mg/kg on days 14+18, day 23
[15] = E3 0.3 mg/kg on days 14+18, day 24
[16] = E3 1.0 mg/kg on days 14+18, day 14
[17] = E3 1.0 mg/kg on days 14+18, day 15
[18] = E3 1.0 mg/kg on days 14+18, day 16
[19] = E3 1.0 mg/kg on days 14+18, day 17
[20] = E3 1.0 mg/kg on days 14+18, day 18
[21] = E3 1.0 mg/kg on days 14+18, day 20
[22] = E3 1.0 mg/kg on days 14+18, day 21
[23] = E3 1.0 mg/kg on days 14+18, day 23
[24] = E3 1.0 mg/kg on days 14+18, day 24
[25] = E3 5.0 mg/kg on days 14+18, day 14
[26] = E3 5.0 mg/kg on days 14+18, day 15
[27] = E3 5.0 mg/kg on days 14+18, day 16
[28] = E3 5.0 mg/kg on days 14+18, day 17
[29] = E3 5.0 mg/kg on days 14+18, day 18
[30] = E3 5.0 mg/kg on days 14+18, day 20
[31] = E3 5.0 mg/kg on days 14+18, day 21
[32] = E3 5.0 mg/kg on days 14+18, day 23
[33] = E3 5.0 mg/kg on days 14+18, day 24

B1: E3: humanized, affinity matured anti-NGF antagonist antibody; variable regions SEQ ID NO:1 and 2; human IgG2a (A330P331 to S330S331), kappa (antibody, V domains shown)
VH: QVQLQESGPGLVKPSETLSLTCTVSGFSLIGYDLNWIRQPPGKGLEWIGIIWGDGTTDYNSAVKSRVTISKDTSKNQFSLKLSSVTAADTAVYYCARGGYWYATSYYFDYWGQGTLVTVS
VL: DIQMTQSPSSLSASVGDRVTITCRASQSISNNLNWYQQKPGKAPKLLIYYTSRFHSGVPSRFSGSGSGTDFTFTISSLQPEDIATYYCQQEHTLPYTFGQGTKLEIKRT
modifications: human IgG2a constant (A330S/P331S) and kappa constant missing
With B1 the “Body weight normalized to day 14” value (E3 0.1 mg/kg on days 14+18, day 16) was 101.07, the “Body weight normalized to day 0” value [1] was 115.99 and the “Body weight normalized to day 14” value [1] was 101.89. The “Body weight normalized to day 0” value [2] was 118.01, the “Body weight normalized to day 14” value [2] was 103.69 and the “Body weight normalized to day 0” value [3] was 122.17. For the same molecule, the “Body weight normalized to day 14” value [3] was 107.36, the “Body weight normalized to day 0” value [4] was 123.49 and the “Body weight normalized to day 14” value [4] was 108.50. The “Body weight normalized to day 0” value [5] was 124.35, the “Body weight normalized to day 14” value [5] was 109.25 and the “Body weight normalized to day 0” value [6] was 123.77. For the same molecule, the “Body weight normalized to day 14” value [6] was 108.77, the “Body weight normalized to day 0” value (E3 0.3 mg/kg on days 14+18, day 0) was 100.00 and the “Body weight normalized to day 0” value (E3 0.3 mg/kg on days 14+18, day 1) was 99.26. The “Body weight normalized to day 0” value (E3 0.3 mg/kg on days 14+18, day 2) was 102.98, the “Body weight normalized to day 0” value (E3 0.3 mg/kg on days 14+18, day 3) was 106.95 and the “Body weight normalized to day 0” value (E3 0.3 mg/kg on days 14+18, day 4) was 110.50. For the same molecule, the “Body weight normalized to day 0” value (E3 0.3 mg/kg on days 14+18, day 7) was 120.03, the “Body weight normalized to day 0” value (E3 0.3 mg/kg on days 14+18, day 8) was 121.38 and the “Body weight normalized to day 0” value (E3 0.3 mg/kg on days 14+18, day 9) was 121.57. For the same molecule, the “Body weight normalized to day 0” value (E3 0.3 mg/kg on days 14+18, day 10) was 118.27, the “Body weight normalized to day 0” value (E3 0.3 mg/kg on days 14+18, day 11) was 116.02 and the “Body weight normalized to day 0” value [7] was 108.43. For the same molecule, the “Body weight normalized to day 14” value [7] was 100.00, the “Body weight normalized to day 0” value [8] was 109.59 and the “Body weight normalized to day 14” value [8] was 101.05. For the same molecule, the “Body weight normalized to day 0” value [9] was 111.54, the “Body weight normalized to day 14” value [9] was 102.88 and the “Body weight normalized to day 0” value [10] was 113.57. The “Body weight normalized to day 14” value [10] was 104.76, the “Body weight normalized to day 0” value [11] was 116.13 and the “Body weight normalized to day 14” value [11] was 107.11. The “Body weight normalized to day 0” value [12] was 120.62, the “Body weight normalized to day 14” value [12] was 111.26 and the “Body weight normalized to day 0” value [13] was 122.88. For the same molecule, the “Body weight normalized to day 14” value [13] was 113.31, the “Body weight normalized to day 0” value [14] was 125.36 and the “Body weight normalized to day 14” value [14] was 115.59. For the same molecule, the “Body weight normalized to day 0” value [15] was 125.33, the “Body weight normalized to day 14” value [15] was 115.58 and the “Body weight normalized to day 0” value (E3 1.0 mg/kg on days 14+18, day 0) was 100.00. The “Body weight normalized to day 0” value (E3 1.0 mg/kg on days 14+18, day 1) was 98.81, the “Body weight normalized to day 0” value (E3 1.0 mg/kg on days 14+18, day 2) was 103.18 and the “Body weight normalized to day 0” value (E3 1.0 mg/kg on days 14+18, day 3) was 106.52. The “Body weight normalized to day 0” value (E3 1.0 mg/kg on days 14+18, day 4) was 110.52, the “Body weight normalized to day 0” value (E3 1.0 mg/kg on days 14+18, day 7) was 121.54 and the “Body weight normalized to day 0” value (E3 1.0 mg/kg on days 14+18, day 8) was 124.28. The “Body weight normalized to day 0” value (E3 1.0 mg/kg on days 14+18, day 9) was 125.60, the “Body weight normalized to day 0” value (E3 1.0 mg/kg on days 14+18, day 10) was 124.11 and the “Body weight normalized to day 0” value (E3 1.0 mg/kg on days 14+18, day 11) was 121.27. The “Body weight normalized to day 0” value [16] was 111.72, the “Body weight normalized to day 14” value [16] was 100.00 and the “Body weight normalized to day 0” value [17] was 112.30. The “Body weight normalized to day 14” value [17] was 100.53, the “Body weight normalized to day 0” value [18] was 115.00 and the “Body weight normalized to day 14” value [18] was 102.95. For the same molecule, the “Body weight normalized to day 0” value [19] was 118.08, the “Body weight normalized to day 14” value [19] was 105.74 and the “Body weight normalized to day 0” value [20] was 121.16. For the same molecule, the “Body weight normalized to day 14” value [20] was 108.46, the “Body weight normalized to day 0” value [21] was 126.90 and the “Body weight normalized to day 14” value [21] was 113.57. The “Body weight normalized to day 0” value [22] was 130.41, the “Body weight normalized to day 14” value [22] was 116.71 and the “Body weight normalized to day 0” value [23] was 137.81. For the same molecule, the “Body weight normalized to day 14” value [23] was 123.35, the “Body weight normalized to day 0” value [24] was 138.93 and the “Body weight normalized to day 14” value [24] was 124.41. For the same molecule, the “Body weight normalized to day 0” value (E3 5.0 mg/kg on days 14+18, day 0) was 100.00, the “Body weight normalized to day 0” value (E3 5.0 mg/kg on days 14+18, day 1) was 98.25 and the “Body weight normalized to day 0” value (E3 5.0 mg/kg on days 14+18, day 2) was 101.82. The “Body weight normalized to day 0” value (E3 5.0 mg/kg on days 14+18, day 3) was 105.47, the “Body weight normalized to day 0” value (E3 5.0 mg/kg on days 14+18, day 4) was 109.29 and the “Body weight normalized to day 0” value (E3 5.0 mg/kg on days 14+18, day 7) was 119.77. For the same molecule, the “Body weight normalized to day 0” value (E3 5.0 mg/kg on days 14+18, day 8) was 121.96, the “Body weight normalized to day 0” value (E3 5.0 mg/kg on days 14+18, day 9) was 123.04 and the “Body weight normalized to day 0” value (E3 5.0 mg/kg on days 14+18, day 10) was 120.00. For the same molecule, the “Body weight normalized to day 0” value (E3 5.0 mg/kg on days 14+18, day 11) was 117.97, the “Body weight normalized to day 0” value [25] was 111.58 and the “Body weight normalized to day 14” value [25] was 100.00. For the same molecule, the “Body weight normalized to day 0” value [26] was 113.33, the “Body weight normalized to day 14” value [26] was 101.61 and the “Body weight normalized to day 0” value [27] was 116.06. For the same molecule, the “Body weight normalized to day 14” value [27] was 104.09, the “Body weight normalized to day 0” value [28] was 119.14 and the “Body weight normalized to day 14” value [28] was 106.85. The “Body weight normalized to day 0” value [29] was 122.14, the “Body weight normalized to day 14” value [29] was 109.53 and the “Body weight normalized to day 0” value [30] was 128.60. The “Body weight normalized to day 14” value [30] was 115.32, the “Body weight normalized to day 0” value [31] was 132.82 and the “Body weight normalized to day 14” value [31] was 119.11. For the same molecule, the “Body weight normalized to day 0” value [32] was 140.79, the “Body weight normalized to day 14” value [32] was 126.36 and the “Body weight normalized to day 0” value [33] was 141.77. The “Body weight normalized to day 14” value [33] was 127.25, the “change in body weight vs vehicle-treated arthritic animals (two-way ANOVA)” value (data normalized to day 0, 0.03 mg/kg (p<0.002)) was “significant change in body weight” and the “change in body weight vs vehicle-treated arthritic animals (two-way ANOVA)” value (data normalized to day 14, 0.03 mg/kg (p<0.005)) was “significant change in body weight”. For the same molecule, the “weight loss compared with saline treated arthritic rats” value (rat, in vivo) was “less apparent weight loss than saline treated arthritic rats”.
